The values that follow come from paper PMC6687201, “Atg11 tethers Atg9 vesicles to initiate selective autophagy” (PLoS Biology, 2019).

In series [1] the target is T1, recombinant purified Atg11 (Atg11-His6) (yeast, UniProt Q12527 1-1178, Atto565 label in the GUV experiments).
T1 construct: N-terminal residual glycine-proline from PreScission protease digestion; Atg11, yeast; expressed from pCoofy37-Atg11; measured molecular weight 136 kDa; also called His-tagged Atg11; Atg11^Atto565; source: E. coli BL21 (DE3), coexpressed with chaperones from pG-KJE8, purified (Ni-NTA, PreScission digestion, gel filtration); not shown: His6, C-terminal, kept
T1 sequence: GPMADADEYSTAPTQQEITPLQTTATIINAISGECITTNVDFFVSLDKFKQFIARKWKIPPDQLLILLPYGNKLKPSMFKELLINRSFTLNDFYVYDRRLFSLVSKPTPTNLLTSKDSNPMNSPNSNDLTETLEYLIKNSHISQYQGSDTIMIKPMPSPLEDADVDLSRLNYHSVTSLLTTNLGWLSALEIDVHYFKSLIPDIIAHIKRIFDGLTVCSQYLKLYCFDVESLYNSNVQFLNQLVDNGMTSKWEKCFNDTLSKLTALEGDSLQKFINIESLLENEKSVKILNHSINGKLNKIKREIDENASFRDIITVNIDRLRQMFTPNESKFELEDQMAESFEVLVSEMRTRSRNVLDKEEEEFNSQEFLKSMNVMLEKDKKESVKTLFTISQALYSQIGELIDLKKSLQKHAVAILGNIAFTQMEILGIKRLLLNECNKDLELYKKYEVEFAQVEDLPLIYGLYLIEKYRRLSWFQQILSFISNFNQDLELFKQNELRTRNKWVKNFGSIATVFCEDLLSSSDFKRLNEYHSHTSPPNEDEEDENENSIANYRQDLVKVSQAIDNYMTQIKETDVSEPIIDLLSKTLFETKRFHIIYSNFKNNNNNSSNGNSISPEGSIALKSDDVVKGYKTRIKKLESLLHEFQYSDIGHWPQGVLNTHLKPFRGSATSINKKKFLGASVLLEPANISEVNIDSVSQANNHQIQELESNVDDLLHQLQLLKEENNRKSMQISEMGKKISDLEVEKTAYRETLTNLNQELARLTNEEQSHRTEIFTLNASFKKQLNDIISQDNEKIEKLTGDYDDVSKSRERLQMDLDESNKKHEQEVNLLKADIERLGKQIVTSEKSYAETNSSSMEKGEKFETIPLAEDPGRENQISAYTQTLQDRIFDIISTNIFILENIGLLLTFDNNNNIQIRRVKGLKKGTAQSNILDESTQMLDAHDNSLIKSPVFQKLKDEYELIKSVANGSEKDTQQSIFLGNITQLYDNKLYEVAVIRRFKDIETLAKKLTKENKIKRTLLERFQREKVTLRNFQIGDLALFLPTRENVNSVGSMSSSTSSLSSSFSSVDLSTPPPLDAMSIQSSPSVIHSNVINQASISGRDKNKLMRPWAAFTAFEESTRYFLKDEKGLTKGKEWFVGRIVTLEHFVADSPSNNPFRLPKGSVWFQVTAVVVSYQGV
The series is described as follows: cross-linking; Sulfo-LC-SDA (spacer arm 12.5 Å) conjugated to primary amines of Atg32^SE, mixed with Atg11, 365 nm UV light for up to 15 min, SDS-PAGE. The following applies: both partners purified.

The target of series [2] is T2, myc-tagged full length Atg11 (S. cerevisiae, UniProt Q12527 1-1178).
T2 construct: Atg11, scaffolding protein of selective autophagy, yeast; also called Atg11-myc; myc-Atg11; source: yeast cells expressing myc-tagged Atg11, in lysate
T2 sequence (looked up): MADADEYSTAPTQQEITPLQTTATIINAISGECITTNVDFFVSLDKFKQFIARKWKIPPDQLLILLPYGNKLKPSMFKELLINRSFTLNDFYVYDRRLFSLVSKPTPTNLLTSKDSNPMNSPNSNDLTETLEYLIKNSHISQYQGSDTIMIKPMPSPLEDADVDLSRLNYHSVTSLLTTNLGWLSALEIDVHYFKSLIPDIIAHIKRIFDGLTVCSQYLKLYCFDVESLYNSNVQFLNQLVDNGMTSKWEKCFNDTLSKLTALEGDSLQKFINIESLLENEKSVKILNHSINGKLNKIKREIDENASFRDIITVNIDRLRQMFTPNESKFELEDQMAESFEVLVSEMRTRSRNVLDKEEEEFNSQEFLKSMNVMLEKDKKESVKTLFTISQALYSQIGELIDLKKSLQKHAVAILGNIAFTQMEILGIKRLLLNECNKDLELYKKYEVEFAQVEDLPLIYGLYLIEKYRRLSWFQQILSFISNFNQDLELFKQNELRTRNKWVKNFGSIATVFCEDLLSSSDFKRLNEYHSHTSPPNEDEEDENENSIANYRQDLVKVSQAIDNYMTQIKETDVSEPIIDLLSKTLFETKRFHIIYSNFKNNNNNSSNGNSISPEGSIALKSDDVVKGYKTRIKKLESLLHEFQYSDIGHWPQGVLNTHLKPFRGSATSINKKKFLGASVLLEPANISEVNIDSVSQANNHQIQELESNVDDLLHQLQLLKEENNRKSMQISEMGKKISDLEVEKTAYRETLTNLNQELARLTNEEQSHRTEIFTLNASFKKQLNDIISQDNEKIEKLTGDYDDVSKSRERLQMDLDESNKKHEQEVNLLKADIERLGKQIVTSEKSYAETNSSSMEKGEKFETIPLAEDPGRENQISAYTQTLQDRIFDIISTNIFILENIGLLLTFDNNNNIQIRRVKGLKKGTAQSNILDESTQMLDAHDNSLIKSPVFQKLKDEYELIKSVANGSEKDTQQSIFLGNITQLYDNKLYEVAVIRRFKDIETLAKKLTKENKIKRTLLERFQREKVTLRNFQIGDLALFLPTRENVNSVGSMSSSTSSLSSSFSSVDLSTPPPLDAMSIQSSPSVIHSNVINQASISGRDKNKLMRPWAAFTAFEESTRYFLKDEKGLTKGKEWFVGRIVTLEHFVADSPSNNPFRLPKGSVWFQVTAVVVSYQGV
The experiment in a line: co-IP; IP of myc-tagged Atg11 (anti-myc, Protein A magnetic beads), co-IP of HA-tagged Atg9; lysates of WT, atg13Δ, atg17Δ, atg29Δ and atg31Δ cells, log phase and starved; 25 mM Tris-HCl pH 7.2, 150 mM NaCl, 0.2% NP-40. As to conditions: partners not purified.

Series [3] concerns the molecule itself. The experiment in a line: SEC; purified Atg11^ΔC on a Superose 6 column. On the technique in general: In gel filtration, larger molecules generally elute earlier.

B1: Atg32^SE (Atg32^1-376 with the phosphomimetic mutation S114E) (domain or fragment, yeast, UniProt P40458 1-376, looked up)
chain: MVLEYQQREGKGSSSKSMPPDSSSTTIHTCSEAQTGEDKGLLDPHLSVLELLSKTGHSPSPMGQNLVTSIDISGNHNVNDSISGSWQAIQPLDLGASFIPERCSSQTTNGSILESSDTSEEEQELLQAPAADIINIIKQGQEGANVVSPSHPFKQLQKIISLPLPGKEKTPFNEQDDDGDEDEAFEEDSVTITKSLTSSTNSFVMPKLSLTQKNPVFRLLILGRTGSSFYQSIPKEYQSLFELPKYHDSATFPQYTGIVIIFQELREMVSLLNRIVQYSQGKPVIPICQPGQVIQVKNVLKSFLRNKLVKLLFPPVVVTNKRDLKKMFQRLQDLSLEYGEDVNEEDNDDEAIHTKSRSYCRNKKAENSKKKSPKSN
modifications: PacificBlue label in the GUV experiment; Sulfo-LC-SDA conjugated to primary amines in the cross-linking experiment
notes: Atg32, mitochondrial cargo receptor, yeast; N-terminal cytoplasmic domain, residues 1-376; also called Atg32^1-376,SE; Sulfo-LC-Atg32^SE
As to B1, the binding result in series [1] is on record as “binds”.

B2: HA-tagged Atg9 (natural protein, S. cerevisiae, UniProt Q12142 1-997, looked up)
chain: MERDEYQLPNSHGKNTFLSRIFGLQSDEVNPSLNSQEMSNFPLPDIERGSSLLHSTNDSREDVDENDLRVPESDQGTSTEEEDEVDEEQVQAYAPQISDGLDGDHQLNSVTSKENVLETEKSNLERLVEGSTDDSVPKVGQLSSEEEEDNEFINNDGFDDDTPLFQKSKIHEFSSKKSNTIEDGKRPLFFRHILQNNRPQRDTQKLFTSSNAIHHDKDKSANNGPRNINGNQKHGTKYFGSATQPRFTGSPLNNTNRFTKLFPLRKPNLLSNISVLNNTPEDRINTLSVKERALWKWANVENLDIFLQDVYNYYLGNGFYCIILEKILNICTLLFVVFVSTYMGHCVDYSKLPTSHRVSDIIIDKCYSNSITGFTKFFLWMFYFFVILKIVQLYFDVQKLSELQNFYKYLLNISDDELQTLPWQNVIQQLMYLKDQNAMTANVVEVKAKNRIDAHDVANRIMRRENYLIALYNSDILNLSLPIPLFRTNVLTKTLEWNINLCVMGFVFNESGFIKQSILKPSQREFTREELQKRFMLAGFLNIILAPFLVTYFVLLYFFRYFNEYKTSPGSIGARQYTPIAEWKFREYNELYHIFKKRISLSTTLANKYVDQFPKEKTNLFLKFVSFICGSFVAILAFLTVFDPENFLNFEITSDRSVIFYITILGAIWSVSRNTITQEYHVFDPEETLKELYEYTHYLPKEWEGRYHKEEIKLEFCKLYNLRIVILLRELTSLMITPFVLWFSLPSSAGRIVDFFRENSEYVDGLGYVCKYAMFNMKNIDGEDTHSMDEDSLTKKIAVNGSHTLNSKRRSKFTAEDHSDKDLANNKMLQSYVYFMDDYSNSENLTGKYQLPAKKGYPNNEGDSFLNNKYSWRKQFQPGQKPELFRIGKHALGPGHNISPAIYSTRNPGKNWDNNNNGDDIKNGTNNATAKNDDNNGNNDHEYVLTESFLDSGAFPNHDVIDHNKMLNSNYNGNGILNKGGVLGLVKEYYKKSDVGR
notes: Atg9, transmembrane autophagy protein, yeast; also called HA-Atg9; source: yeast cells expressing HA-tagged Atg9, in lysate
Turning to B2, the “fold binding in atg17Δ against wild-type cells, upon starvation” value in series [2] was determined as 4.1 fold.

B3: recombinant purified Atg11^ΔC (residues 1-667) (domain or fragment, yeast, UniProt Q12527 1-667, looked up)
chain: MADADEYSTAPTQQEITPLQTTATIINAISGECITTNVDFFVSLDKFKQFIARKWKIPPDQLLILLPYGNKLKPSMFKELLINRSFTLNDFYVYDRRLFSLVSKPTPTNLLTSKDSNPMNSPNSNDLTETLEYLIKNSHISQYQGSDTIMIKPMPSPLEDADVDLSRLNYHSVTSLLTTNLGWLSALEIDVHYFKSLIPDIIAHIKRIFDGLTVCSQYLKLYCFDVESLYNSNVQFLNQLVDNGMTSKWEKCFNDTLSKLTALEGDSLQKFINIESLLENEKSVKILNHSINGKLNKIKREIDENASFRDIITVNIDRLRQMFTPNESKFELEDQMAESFEVLVSEMRTRSRNVLDKEEEEFNSQEFLKSMNVMLEKDKKESVKTLFTISQALYSQIGELIDLKKSLQKHAVAILGNIAFTQMEILGIKRLLLNECNKDLELYKKYEVEFAQVEDLPLIYGLYLIEKYRRLSWFQQILSFISNFNQDLELFKQNELRTRNKWVKNFGSIATVFCEDLLSSSDFKRLNEYHSHTSPPNEDEEDENENSIANYRQDLVKVSQAIDNYMTQIKETDVSEPIIDLLSKTLFETKRFHIIYSNFKNNNNNSSNGNSISPEGSIALKSDDVVKGYKTRIKKLESLLHEFQYSDIGHWPQGVLNTHLKPFRGSA
notes: Atg11, yeast, N-terminal fragment, residues 1-667; expressed from pCoofy37-Atg11^ΔC; molecular weight 78.2 kDa; Made from the same vector as full-length Atg11, so it may also carry a C-terminal His6 tag and an N-terminal Gly-Pro; also called purified Atg17-like domain of Atg11; source: E. coli BL21 (DE3), coexpressed with chaperones from pG-KJE8, purified
Consider B3, for which the “stoichiometry N” value in series [3] worked out at 2.

The term stoichiometry N denotes the number of molecules, sites or subunits per partner or assembly.
